Data from patent US10221439B2, “Sensors, methods and kits for detecting nicotinamide adenine dinucleotides” (Max-Planck-Gesellschaft zur Förderung der Wissenschaften …, priority 2015, dated 2019).

Assay: Titration of NAD-specific FRET sensor with NAD^+ and NADP^+
Type: binding
Experimental: In order to evaluate, that these mutations were sufficient to fully switch the specificity of the cofactor binding site of SPR from NADP(H) to NAD(H), we prepared titration experiments according to the similar procedure explained herein (example 3). The labelled sensor were diluted in buffer solution containing defined concentrations of NAD^+ and NADP^+ and measure with the fluorimeter (TECAN) (FIG. 4).

B1: SPR mutant with Asp^41 and Ala^42: initial trial SPR mutant sensor for NAD^+ (conjugate, UniProt P35270 1-261, looked up, variant A41D R42A)
Sepiapterin reductase: MEGGLGRAVCLLTGASRGFGRTLAPLLASLLSPGSVLVLSDANDEALRQLEAELGAERSGLRVVRVPADLGAEAGLQQLLGALRELPRPKGLQRLLLINNAGSLGDVSKGFVDLSDSTQVNNYWALNLTSMLCLTSSVLKAFPDSPGLNRTVVNISSLCALQPFKGWALYCAGKAARDMLFQVLALEEPNVRVLNYAPGPLDTDMQQLARETSVDPDMRKGLQELKAKGKLVDCKVSAQKLLSLLEKDEFKSGAHVDFYDK
affinity and specificity for NAD^+: low affinity, but high specificity for NAD^+
